Measured values reported in PMC4783044, “Stoichiometry and Change of the mRNA Closed-Loop Factors as Translating Ribosomes Transit from Initiation to Elongation” (PLoS ONE, 2016).

B1: PAB1-GFP (natural protein, yeast, UniProt P04147 1-577, looked up)
chain: MADITDKTAEQLENLNIQDDQKQAATGSESQSVENSSASLYVGDLEPSVSEAHLYDIFSPIGSVSSIRVCRDAITKTSLGYAYVNFNDHEAGRKAIEQLNYTPIKGRLCRIMWSQRDPSLRKKGSGNIFIKNLHPDIDNKALYDTFSVFGDILSSKIATDENGKSKGFGFVHFEEEGAAKEAIDALNGMLLNGQEIYVAPHLSRKERDSQLEETKAHYTNLYVKNINSETTDEQFQELFAKFGPIVSASLEKDADGKLKGFGFVNYEKHEDAVKAVEALNDSELNGEKLYVGRAQKKNERMHVLKKQYEAYRLEKMAKYQGVNLFVKNLDDSVDDEKLEEEFAPYGTITSAKVMRTENGKSKGFGFVCFSTPEEATKAITEKNQQIVAGKPLYVAIAQRKDVRRSQLAQQIQARNQMRYQQATAAAAAAAAGMPGQFMPPMFYGVMPPRGVPFNGPNPQQMNPMGGMPKNGMPPQFRNGPVYGVPPQGGFPRNANDNNQFYQQKQRQALGEQLYKKVSAKTSNEEAAGKITGMILDLPPQEVFPLLESDELFEQHYKEASAAYESFKKEQEQQTEQA
notes: the printed name puts GFP after the protein; source: yeast strain carrying the GFP fusion, in crude extract
B2: eIF4E-GFP (natural protein, yeast, UniProt P07260 1-213, looked up)
chain: MSVEEVSKKFEENVSVDDTTATPKTVLSDSAHFDVKHPLNTKWTLWYTKPAVDKSESWSDLLRPVTSFQTVEEFWAIIQNIPEPHELPLKSDYHVFRNDVRPEWEDEANAKGGKWSFQLRGKGADIDELWLRTLLAVIGETIDEDDSQINGVVLSIRKGGNKFALWTKSEDKEPLLRIGGKFKQVLKLTDDGHLEFFPHSSANGRHPQPSITL
notes: as for B1
B3: eIF4G1-GFP (natural protein, yeast, UniProt P39935 1-952, looked up)
chain: MTDETAHPTQSASKQESAALKQTGDDQQESQQQRGYTNYNNGSNYTQKKPYNSNRPHQQRGGKFGPNRYNNRGNYNGGGSFRGGHMGANSSNVPWTGYYNNYPVYYQPQQMAAAGSAPANPIPVEEKSPVPTKIEITTKSGEHLDLKEQHKAKLQSQERSTVSPQPESKLKETSDSTSTSTPTPTPSTNDSKASSEENISEAEKTRRNFIEQVKLRKAALEKKRKEQLEGSSGNNNIPMKTTPENVEEKGSDKPEVTEKTKPAEEKSAEPEVKQETPAEEGEQGEKGQIKEESTPKVLTFAERLKLKKQQKEREEKTEGKENKEVPVQEETKSAIESAPVPPSEQVKEETEVAETEQSNIDESATTPAIPTKSDEAEAEVEAEAGDAGTKIGLEAEIETTTDETDDGTNTVSHILNVLKDATPIEDVFSFNYPEGIEGPDIKYKKEHVKYTYGPTFLLQFKDKLNVKADAEWVQSTASKIVIPPGMGRGNRSRDSGRFGNNSSRGHDFRNTSVRNMDDRANSRTSSKRRSKRMNDDRRSNRSYTSRRDRERGSYRNEEKREDDKPKEEVAPLVPSANRWVPKFKSKKTEKKLAPDGKTELLDKDEVERKMKSLLNKLTLEMFDAISSEILAIANISVWETNGETLKAVIEQIFLKACDEPHWSSMYAQLCGKVVKELNPDITDETNEGKTGPKLVLHYLVARCHAEFDKGWTDKLPTNEDGTPLEPEMMSEEYYAAASAKRRGLGLVRFIGFLYRLNLLTGKMMFECFRRLMKDLTDSPSEETLESVVELLNTVGEQFETDSFRTGQATLEGSQLLDSLFGILDNIIQTAKISSRIKFKLIDIKELRHDKNWNSDKKDNGPKTIQQIHEEEERQRQLKNNSRSNSRRTNNSSNRHSFRRDAPPASKDSFITTRTYSQRNSQRAPPPKEEPAAPTSTATNMFSALMGESDDEE
notes: eIF4G1 of yeast, GFP fusion; the printed name puts GFP after the protein; also called eIFG1; source: yeast strain carrying the GFP fusion at the chromosomal location, in crude extract
B4: SSD1-GFP (natural protein, yeast, UniProt P24276 1-1250, looked up)
chain: MSKNSNVNNNRSQEPNNMFVQTTGGGKNAPKQIHVAHRRSQSELTNLMIEQFTLQKQLEQVQAQQQQLMAQQQQLAQQTGQYLSGNSGSNNHFTPQPPHPHYNSNGNSPGMSAGGSRSRTHSRNNSGYYHNSYDNNNNSNNPGSNSHRKTSSQSSIYGHSRRHSLGLNEAKKAAAEEQAKRISGGEAGVTVKIDSVQADSGSNSTTEQSDFKFPPPPNAHQGHRRATSNLSPPSFKFPPNSHGDNDDEFIATSSTHRRSKTRNNEYSPGINSNWRNQSQQPQQQLSPFRHRGSNSRDYNSFNTLEPPAIFQQGHKHRASNSSVHSFSSQGNNNGGGRKSLFAPYLPQANIPELIQEGRLVAGILRVNKKNRSDAWVSTDGALDADIYICGSKDRNRALEGDLVAVELLVVDDVWESKKEKEEKKRRKDASMQHDLIPLNSSDDYHNDASVTAATSNNFLSSPSSSDSLSKDDLSVRRKRSSTINNDSDSLSSPTKSGVRRRSSLKQRPTQKKNDDVEVEGQSLLLVEEEEINDKYKPLYAGHVVAVLDRIPGQLFSGTLGLLRPSQQANSDNNKPPQSPKIAWFKPTDKKVPLIAIPTELAPKDFVENADKYSEKLFVASIKRWPITSLHPFGILVSELGDIHDPDTEIDSILRDNNFLSNEYLDQKNPQKEKPSFQPLPLTAESLEYRRNFTDTNEYNIFAISELGWVSEFALHVRNNGNGTLELGCHVVDVTSHIEEGSSVDRRARKRSSAVFMPQKLVNLLPQSFNDELSLAPGKESATLSVVYTLDSSTLRIKSTWVGESTISPSNILSLEQLDEKLSTGSPTSYLSTVQEIARSFYARRINDPEATLLPTLSLLESLDDEKVKVDLNILDRTLGFVVINEIKRKVNSTVAEKIYTKLGDLALLRRQMQPIATKMASFRKKIQNFGYNFDTNTADELIKGVLKIKDDDVRVGIEILLFKTMPRARYFIAGKVDPDQYGHYALNLPIYTHFTAPMRRYADHVVHRQLKAVIHDTPYTEDMEALKITSEYCNFKKDCAYQAQEQAIHLLLCKTINDMGNTTGQLLTMATVLQVYESSFDVFIPEFGIEKRVHGDQLPLIKAEFDGTNRVLELHWQPGVDSATFIPADEKNPKSYRNSIKNKFRSTAAEIANIELDKEAESEPLISDPLSKELSDLHLTVPNLRLPSASDNKQNALEKFISTTETRIENDNYIQEIHELQKIPILLRAEVGMALPCLTVRALNPFMKRV
notes: source: yeast strain carrying the GFP fusion, in crude extract
B5: SLF1-GFP (natural protein, yeast, UniProt Q12034 1-447, looked up)
chain: MSSQNLNDNPKNTSSAAEDKKKQTSSLKLAPIPTTSPWKSSSPDSNTVIPVEELRDISKTAKPSKNGSGSIKLTSNTKWTPITPSVIISGSKDTNSKSGKNSKNSKTNKKMKKRGKYNNDINKKDFNGQTNSTSEISNVSNLESKPLDANAKVNIHSSSGATANGNIKRITNNNNSTNGRQSRNYQNRNGKTRYNNNSRHSQAANNAISFPNNYQARPEYIPNASHWLNNNSRNSYKQLSYFRQQQYYNNINYQQQLQTPYYYSMEPIFKSIESIKNQIEFYFSEENLKTDEFLRSKFKKANDGFIPMSLIGKFYRMVNLSLGGDPNLILASMREVLQHKETNHLEIALGSIEGAQKNMADDFNPLENYFIRRENWAEYAMESNFDENDDETEKYNIEKLLGPNDLDNYSYMGYPNFFPSNENGKKSQSYDQGEISRQFEQNLQIND
notes: as for B4

How the values were obtained:
[1] = biological target: T1, Flag-PAB1 (yeast, UniProt P04147 1-577); experiment: co-IP + AUC; one-step anti-Flag bead purification from yeast crude extract (Tris pH 7.5, 0.15 M KCl, 2 mM MgCl2, 10% glycerol, 4°C), Flag peptide elution, then AU-FDS of the GFP fusion with AU-A230 or AU-A260 (20°C, 15,000 rpm); material migrating at 77S (monosomal translating complex); cycloheximide added to cells; cells on glucose (elongation), or glucose depleted 10 min and glucose added back for 1 min or 0 min (initiation)
T1 sequence (looked up): B1 chain

[2] = biological target: T2, eIF4E-Flag (yeast, UniProt P07260 1-213); experiment: co-IP + AUC; one-step anti-Flag bead purification from yeast crude extract (Tris pH 7.5, 0.15 M KCl, 2 mM MgCl2, 10% glycerol, 4°C), Flag peptide elution, then AU-FDS of the GFP fusion with AU-A230 or AU-A260 (20°C, 15,000 rpm); material migrating at 77S (monosomal translating complex); cycloheximide added to cells; cells on glucose (elongation), or glucose depleted 10 min and glucose added back for 1 min or 0 min …; conditions: partners not purified
T2 sequence (looked up): B2 chain

[3] = biological target: Flag-SBP1 (yeast) (UniProt P10080); experiment: co-IP + AUC; one-step anti-Flag bead purification from yeast crude extract (Tris pH 7.5, 0.15 M KCl, 2 mM MgCl2, 10% glycerol, 4°C), Flag peptide elution, then AU-FDS of the GFP fusion with AU-A230 or AU-A260 (20°C, 15,000 rpm); material migrating at 77S (monosomal translating complex); cycloheximide added to cells; cells on glucose (elongation), or glucose depleted 10 min and glucose added back for 1 min or 0 min (initiation)
[4] = biological target: T2, eIF4E-Flag; experiment: co-IP + AUC; as a1, but material migrating from 90S to 200S (polysomal translating complexes); cells on glucose (elongation), or glucose depleted 10 min and glucose added back for 1 min (initiation); conditions: partners not purified
[5] = biological target: T1, Flag-PAB1; experiment: co-IP + AUC; one-step anti-Flag bead purification from yeast crude extract (Tris pH 7.5, 0.15 M KCl, 2 mM MgCl2, 10% glycerol, 4°C), Flag peptide elution, then AU-FDS of the GFP fusion with AU-A230 or AU-A260 (20°C, 15,000 rpm); material migrating at 77S (monosomal translating complex); cycloheximide added to cells; cells on glucose (elongation), or glucose depleted 10 min and glucose added back for 1 min or 0 min …; conditions: partners not purified
[6] = biological target: T1, Flag-PAB1; experiment: co-IP + AUC; as a1, but material migrating from 90S to 200S (polysomal translating complexes); cells on glucose (elongation), or glucose depleted 10 min and glucose added back for 1 min (initiation); conditions: partners not purified

Sequence of Flag-SBP1 (yeast) (P10080 whole entry, the tested form may be a part): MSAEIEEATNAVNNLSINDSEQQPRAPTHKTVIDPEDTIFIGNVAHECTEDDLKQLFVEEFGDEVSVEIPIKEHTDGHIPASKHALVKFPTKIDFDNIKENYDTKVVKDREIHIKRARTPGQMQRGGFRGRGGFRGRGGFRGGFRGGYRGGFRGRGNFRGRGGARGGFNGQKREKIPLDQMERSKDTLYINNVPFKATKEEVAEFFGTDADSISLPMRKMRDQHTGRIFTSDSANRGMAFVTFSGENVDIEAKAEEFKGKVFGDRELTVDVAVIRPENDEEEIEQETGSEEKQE

| Molecule | relative level in the 77S monosomal translating complex, mRNA set at 100 (elongation) [1] | relative level in the 77S monosomal translating complex, mRNA set at 100 (elongation) [2] | relative level in the 77S monosomal translating complex, mRNA set at 100 (initiation) [2] | relative level in the 77S monosomal translating complex, mRNA set at 100 (elongation) [3] | relative level in the polysomal translating complexes (90S to 200S), mRNA set at 100 (elongation) [4] | relative level in the polysomal translating complexes (90S to 200S), mRNA set at 100 (initiation) [4] | relative level in the 77S monosomal translating complex, mRNA set at 100 (elongation) [5] | relative level in the 77S monosomal translating complex, mRNA set at 100 (initiation) [5] | relative level in the polysomal translating complexes (90S to 200S), mRNA set at 100 (elongation) [6] | relative level in the polysomal translating complexes (90S to 200S), mRNA set at 100 (initiation) [6] |
| --- | --- | --- | --- | --- | --- | --- | --- | --- | --- | --- |
| PUB1-GFP (from UniProt P32588 1-453) (natural protein) | < 0.3 per 100 mRNA | – | – | – | – | – | – | – | – | – |
| B1 | – | 12 per 100 mRNA | 15 per 100 mRNA | < 0.3 per 100 mRNA | 74 per 100 mRNA | 59 per 100 mRNA | – | – | – | – |
| B2 | – | – | – | < 0.3 per 100 mRNA | – | – | 16 per 100 mRNA | 23 per 100 mRNA | 27 per 100 mRNA | 38 per 100 mRNA |
| B3 | – | 19 per 100 mRNA | 20 per 100 mRNA | < 0.3 per 100 mRNA | 75 per 100 mRNA | 79 per 100 mRNA | 5.6 per 100 mRNA | 8.7 per 100 mRNA | 18 per 100 mRNA | 26 per 100 mRNA |
| B4 | – | – | – | – | – | – | 1 per 100 mRNA | 1.8 per 100 mRNA | – | – |
| B5 | – | – | – | – | – | – | 2.5 per 100 mRNA | 3.5 per 100 mRNA | – | – |
